Laboratory results published in paper PMC8897147 (Acta Pharmaceutica Sinica. B, 2021).

Tests used:
Assay in all cases: FRET or BRET
[1] = target: T1, gastric inhibitory polypeptide receptor-Rluc8 (UniProt P48546 22-466)
T1 sequence: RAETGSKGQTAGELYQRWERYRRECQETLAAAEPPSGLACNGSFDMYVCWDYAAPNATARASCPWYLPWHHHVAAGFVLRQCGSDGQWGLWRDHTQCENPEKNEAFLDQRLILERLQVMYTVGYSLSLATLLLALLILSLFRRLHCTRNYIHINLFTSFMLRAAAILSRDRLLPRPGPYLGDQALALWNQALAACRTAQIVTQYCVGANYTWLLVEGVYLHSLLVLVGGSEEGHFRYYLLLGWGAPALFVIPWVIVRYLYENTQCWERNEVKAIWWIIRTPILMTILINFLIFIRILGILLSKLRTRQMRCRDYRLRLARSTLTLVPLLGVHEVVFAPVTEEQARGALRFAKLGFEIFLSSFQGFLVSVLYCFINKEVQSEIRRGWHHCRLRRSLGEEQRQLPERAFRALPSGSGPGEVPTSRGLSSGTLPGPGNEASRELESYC

[2] = target: secretin receptor-Rluc8 (UniProt P47872 23-440)
[3] = target: T2, growth hormone-releasing hormone receptor-Rluc8 (UniProt Q02643 23-423)
T2 sequence: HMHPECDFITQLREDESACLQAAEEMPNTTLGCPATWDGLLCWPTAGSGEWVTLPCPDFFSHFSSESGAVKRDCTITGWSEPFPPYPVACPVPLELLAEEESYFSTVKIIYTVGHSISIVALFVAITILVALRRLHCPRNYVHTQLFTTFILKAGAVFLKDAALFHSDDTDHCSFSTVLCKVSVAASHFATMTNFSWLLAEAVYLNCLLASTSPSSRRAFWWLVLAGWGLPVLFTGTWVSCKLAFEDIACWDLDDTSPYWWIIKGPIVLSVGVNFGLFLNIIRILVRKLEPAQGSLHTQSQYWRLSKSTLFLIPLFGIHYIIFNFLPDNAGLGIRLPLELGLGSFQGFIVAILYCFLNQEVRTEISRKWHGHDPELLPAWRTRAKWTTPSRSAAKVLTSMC

[4] = target: glucagon-like peptide-1 receptor-Rluc8 (UniProt P43220 24-463)
[5] = target: glucagon receptor-Rluc8 (UniProt P47871 26-477)
[6] = target: calcitonin-like receptor-Rluc8 (human, UniProt Q16602 23-461)
[7] = target: T3, glucagon-like peptide-2 receptor-Rluc8 (UniProt O95838 1-553)
T3 sequence: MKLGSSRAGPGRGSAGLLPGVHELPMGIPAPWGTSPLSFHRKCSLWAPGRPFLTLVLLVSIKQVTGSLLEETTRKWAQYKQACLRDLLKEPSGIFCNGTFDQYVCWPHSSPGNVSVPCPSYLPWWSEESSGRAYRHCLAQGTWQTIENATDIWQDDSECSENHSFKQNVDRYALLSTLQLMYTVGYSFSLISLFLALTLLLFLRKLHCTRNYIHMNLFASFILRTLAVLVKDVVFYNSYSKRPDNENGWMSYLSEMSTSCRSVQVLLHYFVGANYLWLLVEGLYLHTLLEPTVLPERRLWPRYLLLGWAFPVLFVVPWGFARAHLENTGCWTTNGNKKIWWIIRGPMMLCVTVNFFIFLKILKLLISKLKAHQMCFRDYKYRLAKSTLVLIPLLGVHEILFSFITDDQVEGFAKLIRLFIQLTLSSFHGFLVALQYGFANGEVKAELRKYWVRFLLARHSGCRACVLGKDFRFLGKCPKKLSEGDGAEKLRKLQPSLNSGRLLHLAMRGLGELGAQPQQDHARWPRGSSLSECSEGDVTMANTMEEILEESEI

glucagon receptor-Rluc8, sequence (P47871 26-477): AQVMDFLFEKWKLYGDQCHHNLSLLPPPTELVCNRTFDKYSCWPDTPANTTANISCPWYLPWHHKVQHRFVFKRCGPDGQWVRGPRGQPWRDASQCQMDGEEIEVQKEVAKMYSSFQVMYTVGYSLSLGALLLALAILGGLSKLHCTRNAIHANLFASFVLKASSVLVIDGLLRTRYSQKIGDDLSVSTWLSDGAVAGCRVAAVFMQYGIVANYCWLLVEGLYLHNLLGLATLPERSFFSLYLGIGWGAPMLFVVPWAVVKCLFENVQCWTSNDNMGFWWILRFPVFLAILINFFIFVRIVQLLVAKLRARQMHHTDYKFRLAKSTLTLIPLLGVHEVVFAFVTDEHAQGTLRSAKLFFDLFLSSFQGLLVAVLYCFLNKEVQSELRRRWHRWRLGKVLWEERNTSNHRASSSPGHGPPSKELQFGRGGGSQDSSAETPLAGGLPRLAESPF
calcitonin-like receptor-Rluc8, sequence (Q16602 23-461): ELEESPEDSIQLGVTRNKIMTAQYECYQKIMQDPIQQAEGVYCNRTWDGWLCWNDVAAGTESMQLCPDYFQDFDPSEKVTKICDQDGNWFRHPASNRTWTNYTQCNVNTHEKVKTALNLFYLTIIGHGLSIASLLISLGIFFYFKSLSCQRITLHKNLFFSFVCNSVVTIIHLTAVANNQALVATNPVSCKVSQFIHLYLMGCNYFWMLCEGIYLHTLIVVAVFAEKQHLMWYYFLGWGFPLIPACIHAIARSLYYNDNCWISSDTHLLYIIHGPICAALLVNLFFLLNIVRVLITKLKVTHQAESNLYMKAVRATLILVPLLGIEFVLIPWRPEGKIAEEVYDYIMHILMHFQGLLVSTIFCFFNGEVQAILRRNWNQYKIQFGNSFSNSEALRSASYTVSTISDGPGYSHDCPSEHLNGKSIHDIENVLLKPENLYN
secretin receptor-Rluc8, sequence (P47872 23-440): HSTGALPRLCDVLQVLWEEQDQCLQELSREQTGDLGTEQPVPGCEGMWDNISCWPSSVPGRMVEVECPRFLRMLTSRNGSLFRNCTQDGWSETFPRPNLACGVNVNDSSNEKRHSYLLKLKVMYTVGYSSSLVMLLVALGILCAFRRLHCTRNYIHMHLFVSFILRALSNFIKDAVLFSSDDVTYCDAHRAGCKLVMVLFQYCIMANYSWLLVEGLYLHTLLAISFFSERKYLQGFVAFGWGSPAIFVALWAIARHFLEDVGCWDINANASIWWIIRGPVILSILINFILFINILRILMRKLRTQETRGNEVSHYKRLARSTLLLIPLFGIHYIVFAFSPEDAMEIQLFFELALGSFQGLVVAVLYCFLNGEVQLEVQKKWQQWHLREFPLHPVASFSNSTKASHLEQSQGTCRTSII

B1: RAMP3-Ypet (receptor activity-modulating protein 3) (natural protein)
chain: RAGGCNETGMLERLPLCGKAFADMMGKVDVWKWCNLSEFIVYYESFTNCTEMEANVVGCYWPNPLAQGFITGIHRQFFSNCTVDRVHLEDPPDEVLIPLIVIPVVLTVAMAGLVVWRSKRTDTLL
For B1, the “BRET50 (Kd)” value [1] was 0.352 intensity ratio of RAMP:receptor, the “BRET50 (Kd)” value [2] was 1.63 intensity ratio of RAMP:receptor and the “BRET50 (Kd)” value [3] was 2.09 intensity ratio of RAMP:receptor. The “BRET50 (Kd)” value [4] was 1 intensity ratio of RAMP:receptor, the “BRET50 (Kd)” value [5] was 2.34 intensity ratio of RAMP:receptor and the “BRET50 (Kd)” value [6] was 0.087 intensity ratio of RAMP:receptor. For the same binder, the “BRET50 (Kd)” value [7] was 1.66 intensity ratio of RAMP:receptor.

B2: RAMP2-Ypet (receptor activity-modulating protein 2) (natural protein)
chain: QPLPTTGTPGSEGGTVKNYETAVQFCWNHYKDQMDPIEKDWCDWAMISRPYSTLRDCLEHFAELFDLGFPNPLAERIIFETHQIHFANCSLVQPTFSDPPEDVLLAMIIAPICLIPFLITLVVWRSKDSEAQA
B2 was tested, and the “BRET50 (Kd)” value [1] was 2.75 intensity ratio of RAMP:receptor, the “BRET50 (Kd)” value [3] was 0.893 intensity ratio of RAMP:receptor and the “BRET50 (Kd)” value [5] was 1.65 intensity ratio of RAMP:receptor. For the same binder, the “BRET50 (Kd)” value [6] was 0.114 intensity ratio of RAMP:receptor and the “BRET50 (Kd)” value [7] was 7.45 intensity ratio of RAMP:receptor.

B3: RAMP1-Ypet (receptor activity-modulating protein 1) (natural protein)
chain: CQEANYGALLRELCLTQFQVDMEAVGETLWCDWGRTIRSYRELADCTWHMAEKLGCFWPNAEVDRFFLAVHGRYFRSCPISGRAVRDPPGSILYPFIVVPITVTLLVTALVVWQSKRTEGIV
In the case of B3, the “BRET50 (Kd)” value [1] is reported as 4.6 intensity ratio of RAMP:receptor, the “BRET50 (Kd)” value [5] is reported as 1.55 intensity ratio of RAMP:receptor and the “BRET50 (Kd)” value [6] is reported as 0.077 intensity ratio of RAMP:receptor.
